Laboratory results: article PMC4338318

Legend:
[1] = molecular target: Seipin-Myc (wild type) (human) (UniProt Q96G97); assay: atomic force microscopy (AFM); complexes isolated by sequential anti-FLAG and anti-Myc immunoaffinity from triply transfected tsA 201 cells; tapping mode in air
FLAG-seipin-Myc (human) = FLAG-seipin-Myc (human) (UniProt Q96G97); assay: atomic force microscopy (AFM); complexes isolated by anti-Myc immunoaffinity from co-transfected tsA 201 cells and eluted; tapping mode in air; particle volumes and decorations

Row | Substance | percent of seipin particles doubly decorated by AGPAT2 plus lipin 1 [1] [%] | percent of seipin particles doubly decorated (FLAG-seipin-Myc (human)) [%] | percent of seipin particles triply decorated (FLAG-seipin-Myc (human)) [%] | stoichiometry N (FLAG-seipin-Myc (human)) | stoichiometry N [1]
1 | FLAG-AGPAT2 (from UniProt O15120 24-278) (enzyme) | 10.1 | 12.8 | 1 |  | 
2 | FLAG-seipin-Myc (from UniProt Q96G97 1-398) (natural protein) |  |  |  | 12 | 
3 | HA-lipin 1α (from UniProt Q14693 1-890) (enzyme) | 10.1 | 9 |  |  | 
4 | Seipin-Myc (wild type) (from UniProt Q96G97 1-398) (natural protein) |  |  |  |  | 12
